# In the nanobody polyreactivity screen of Harvey et al. (2022):
# Assay: yeast display, Sf9 membrane polyspecificity reagent, FACS + sequencing; frameworks hold sequencing errors
# Summary of the method: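 A synthetic nanobody library was expressed on Saccharomyces cerevisiae BJ5465 by galactose induction for 36–48 hours. The library was stained for 1 hour at 4 °C with 10% biotinylated, detergent-solubilized Sf9 membrane reagent and enriched with streptavidin microbeads before FACS. Low and high (top ~1%) gates were set on anti-HA fluorescence for expression and streptavidin fluorescence for reagent binding, and each polyreactivity label reflects the gate of origin.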
row,Sequence,polyreactivity (PSR sort gate)
1,QVQLVESGGGLVQAGGSLRLSCAASGSIFTGNAMGWYREAPGKERELVAAITNGGITNYADSVKRRFTISRDNAMNTVYLQMNSLKPEDTAVYYCAADYVDFYSFRRFDYWGQGTQVTVSS,low polyreactivity
2,QVQLVESGGGLVQAGGSLRLSCAASGRTFSQYAMGWYRQAPGKERELVAAISWSGGSTYYADSVKGRFTISRDNAKNTVYLQMNSLKPEDTAVYYCAAVGKGSARSSYPVLYDYCGQGTQVTVSS,low polyreactivity
3,QVQLVESCGCLVQAGGSLRLSCAASGRTFFHYDMGWYRQAPGKDRELEAGISSGGRTKYADSVKGRFTISRDNAKNTVYLQMNSLNPEDTAAYYCAASYIVWLTRGAPRKRFDYWGQGSQVTVSS,high polyreactivity
4,QVHLVESGGGLVQAGGSLRLSCAASGSNIYNNAMGWYRQAPGTERELVAAIRSTGTRTYYADSVKGRFTISRDNAKNPVNLQMNSLKPEDTAVYYCAVGDYGLWSYDYWGQGTQVTVSS,low polyreactivity
5,QVQLVESGGGLVQAGGSLRLSCAASARNFYANVMGWYRQAPGKEREFVAAIRWSGGRTYYADSVKGRFTISRDNAKNTVYLQMNSLKPEDTAVYYCAADPWDYISYYIYDYWGQGTQVTVSS,low polyreactivity
6,QVQLVESGGGLVQAGGSLRLTCAASGRTFRPYAMGGYRQAPGKERQLVAAITYSGGSTYYADSVKGRFTISRDNAKNTVYLQMNSLKPEDTAVYYCAAEIAATYRPEYDYWGQGTQVTVSS,high polyreactivity
7,QVQLVESGGGLVQAGGSLRLSCAASGITFIRNAMGWYRQAPGKERELVAAISYRGGSTYYADSVKGRFTISRDNAKNTVYLQMNSLKPEDTAVYYCAAKRYGYKMYYWGQGTQVTVSS,high polyreactivity
8,QVQLVESGGGLVQAGGSLRLSCAASGSTFPRNAMGWYRQAAGKERELVAAISGRGVRTYYADSVKGRFTISRDNAKNTVYLQMNSLKPEDTAVHYCAAERQPYRTSSYNYWGQGTQVTVSS,high polyreactivity
9,QDQLVESGGGLVQAGGSLRLSFAASGRTFDRNTMGWYRQAPGKERELVAAISSSGGSTYYADSVKGRFTISRDNAKNTVYLEMNSLIPEDTAVYYCAVLSRQYFRYGYDYCGQGTQVTVSS,high polyreactivity
10,QVQLVESGGGLVQAGGSLRLSCAATGFTFYVNAMGWYRQAPGKERELVAGITTSDGSTYYADSVKGRFTISRDNAKNTVYLQMNSLKPEDTAVYYCAAAITWYQLYQRSGGDYWGQGTQVTVSS,low polyreactivity
11,QVQLVESGGGLVQAGGSLRLSCAASGIIFAHNAMGWYRQAPGKERELVAAISKRGGSTYYADSVKGRFTISRDNAKNTVYLQMNSLKPEDTAVYYCNKYSSYSFTYDSWGQGTQVTVSS,high polyreactivity
12,QVQLQESGGGPVLAGGSLRLSCAASGTIFVRLDMGWYRPAPGKEREFVATIGSGSSTYYADSVKGSFTISRDNVKNTVYLQMNSLQPEDTAVYYCAVSAAEQSRHYYWDQGTQVTVSS,low polyreactivity
13,QVQLVESGGGLVQAGGSLRLSCAASGRTFQPYAMGWYRQAPGKERELVAAITSIGGSTFYADSVKGRFTISRDNAKNTVYLQMNSLKPEDTAVYYCARRGYYRSIWERDYWGQGTQVTVSS,low polyreactivity
14,QVQLVESGGGLVQAGGSLRLSCAASGSTFPNYPMGWNRQSPGKERELVAAITRSGRSTYYADSVKGRFTISRDNAKNTVYLQMNSLKPEDTGVYYCNAQHLARMDYWGQGTQVTVSS,high polyreactivity
15,QVQLVESGGGLVQAGGSLRLSCAASGRIFPWYAMGWYRQAPGKERELVATITRGTSTNYADSVKGRFTISRDNAKNTVYLQMNSLKPEDTAVYYCAASSSRRRYYYWGQGTQVTVSS,high polyreactivity
16,PVQLVESGGGLVQAGGSLRLSCAASGSIFVTYAMGWYRQAPGKERELVATITYSGGSTSYADSVKGRFTISRDNAKNTVYLQMNSLKPEDTAVYYCAADLDSDFDYWGQGTQVTVSS,low polyreactivity
17,QVQLVESGGGLVQAGGSLRLSCAASGGIFQLNAMGWYSQAPGKERELVAAISGSGGSTYYADSVKGRFTISRDNAKNTVYLQMNSLKPEDTAVYYCAVRLTITDYDYWGQGTQVTVSS,low polyreactivity
18,QVQLVESGGGLVQAGGSLRLSCAASGSIFYLYTMGWYRQAPWKERELVAGISNGDRTYYADSVKGRFTISRDNAKNTVYLQMNSLKPEDTAVYYCAVTVYWYSRAAEYDYWGQGTQVTVSS,low polyreactivity
19,QVQLVESGGGLVQAGGSLRLSCAASGLTFWYNAMGWYRQAPGKERELVAAINSGGRTNYADSVKGRFTISRDNAKNTVYLQMNSLKPEDTAVYYCAAVRHWTVGWTYYYWGQGTQVTVSS,high polyreactivity
20,QVQLVESGGGLVQAGGSLRLSCAASGSTFSGNAMGWYRQAPGKERELVAAITSSGGSTYYADSVKGRFTISRDNAKNTVYLQMNSLKPEDTAVYYCAADGQYYYGFDYWGQGTQVTVSS,high polyreactivity
21,QVQLVESGGGLVQAGGSLRLSCAASGRIFKKNAMGWYRQAPGKERELVAAISARGGSTYYADSVKGRFTISRDNAKNTVYLQMNSLKPEDTAVYYCAADEVDESIHYYTFDYWGQGTQVTVSS,high polyreactivity
22,QVQLVESGGGLVQAGGSLRLSCAASGRIFGYNVMGWYRQAPGKERELVAAISYGGGRTTYADSVKGRFTISRDNAKNTVYLQMNSLKPEDTAVYYCNAGGQHVTLDNGDYWGQGTQVTVSS,high polyreactivity

row,Sequence,polyreactivity (PSR sort gate)
1,QVQLVESGGGLVQAGGSLRLSCAASGRTFWYYAMGWYRQAPGKERELVAAITWSGSDTYYADSVKGRFTISRDNAKNTVYLLMNSLKPEDTAVYYCAAEYSYESSGYDYWGQGTQVTVSS,high polyreactivity
2,QVQLVESGGGLVQAGGSLRLSCAASGGIFYLNAMGWYRQAPGKERELVAAISSGVSTYYADSVKGSFTISRDNAKNTVYLKMNSLKPEDTAVYYCNADYNYPAWVGSWWDYDYWGQGTQVTVTS,low polyreactivity
3,QVQLVESGGGLVQAGGSHRLSCAASGGTFDDYALGWYRQAPGKERELVAAISSSGGSTYYADSVKGRFTISRDNAKNTVYLQMNSLKPEDTAVYYCAVDAYWRLWYYPYESHHDYWGQGTQVTVSS,low polyreactivity
4,QVQLVESGGGLDQAGGSLRLSCAASVSTFDAYAMVWSTQAPGQERELVAAISSSAASTSYADSVKGRFTISRDNAKNTVYVQMNSLKPEDTAFYYCAARPYRRPWYRGRYYYWGQGTQVTVSS,high polyreactivity
5,QVQLVESGGGLVQAGGSLRLSCAASGSIFYYNAMGWYRQAPGKERELVASISERGGITRYADSVKGRFTISRDNAKNTVYLQMNSLKREDTAVYYCNRSISLTFYAYAGYFLALDYWGQGTQVTVSS,low polyreactivity
6,QVQLVESGGGLVQAGGSLRLSCAASGPTFYYYDMGLYRPAPGKERELVAAISATGGRTYYADSVKGRFTISRDNAKNTVYLQMNSLKPEDTAVYYCAAETPYLRRRLGMDYWGQGTQVTVSS,high polyreactivity
7,QVQLVESAAGLVQAGGSLRLSCAASGGIFWVYAMGWYRQAPGKERELVAAISNSDTSTSDADSVKGRFTISRDTAKNTVYLQMYSLKPEDTAVYNCNGDSPSLSGDIWGQGTQVTVTS,low polyreactivity
8,QVQLVESGGGLVQAGGSLRLSCAASGIIFHFNDMGWYRQAPGKERELVAAITSGGSTNYADSVKGRFTLSRDYAKKTVYLQMNSLKPEDTAVYYCNAEPPRGYTVSSGGEMDYWGQGTQVTVSS,low polyreactivity
9,QVQLVESGGGLVQAGGSLRLSCAASGRTILLNDMGWYRQAPGKERELVAGITRSGGSTYYADSVKGRFTISRDNAKNTVYLQMNSLKPEDNAVYYCAADFKPLYYDEYDYWGQGTQVTVSS,low polyreactivity
10,QVQLVESGGGLVQAGGSLRLSCAASGFIFFGEYVMGWYRQAPGKERELVAAITWSGGSTSYADSVKGRFTISRDNAKNTVYLQMNSLKPEDTAVYYCNAVSHFSTAIEFDYWGQGTQVTVSS,low polyreactivity
11,QVQLQESGGGLVQAGGSLRLSCAASGTISQEDWMGWYRQAPGKEREFVAAIGLGSNTNYADSLKGRFSISRDPAKITVYLQMNSLKPEDTAVYYCAVSVWQYSDHVYRGQGTQVTVSS,low polyreactivity
12,QVQLVESGGGLVQAGGSLRLSCAASGFTFRQNSIGWSRQAPGKERELVAAISRSGSRTYYADSVKGRFTISRDNAKNTVYLQMIRLKPEDTAVYYCKAVFSSFTVEYYWGQGTQVTVSS,high polyreactivity
13,QVQLVESGGGLVQAGGSLRLSCAASGSIFGAYAMGWYRQAPGKESELVAVIRWGGGSTYADSVKGRFTISRDNAKNTVYLQMNSLKPEDTAVYYCNRDKSWADLYSHAYDYWGQGTQVTVSS,low polyreactivity
14,QVQLVESGGGLVQAGGSLRLSCAASGSIFSSYAMGWYRPAPWKESELVAAITYNGGSTFYADSVKGRFTISRDNAKNTVYLPMYCLKPVDTAVYYCAAEYVGYYVYTWLYDYWGQGTQVTVSS,high polyreactivity
15,QVQLVESGGALVQAGGSLRLSCAASRSIFWINAMGGYRQAPGTERELVADNDVSGGSTYYADTVKGRFTISRDNAKNTVYLKMNSLKPEDTEVYYCAADDYWAYLYYKTSEYDYWGQGTQVTVSS,low polyreactivity
16,QVQLVESGGGLVQAGGSLRLSCAASGRIFARNTMGWYRQAPGKERELVAAISWGGGRTYYADSVKGRFTISRDNAKNTVYLQMNSLKPEDTAVYYCAAETLQIPRGEYWGQGTQVNVSS,low polyreactivity
17,QVQLVESGGGLVQAGGSLRLSCAASGSIFTAYTMGWYRQAPGKERELVAAITERGGSTYYADSVKGRFTISRDNAKNTVYLQMNSLKPEDTAVYYCNAVWYFKPPPLYYIPYRQYDYWGQGTQVTVSS,low polyreactivity
18,QVQLVESGGGLVQAGGSLRLSCAASGSTFRYYAMGWYRQEPGKERELVASITRGASTNYADSVKGRFTISRDNAKNTVYIQMNSLKPEDTAVYYCAADNYWHTFGGTDLRDDYWGQGTQVTVSS,low polyreactivity
19,QVQLVESGGGLVQAGGSLRLSCAASVRIFGSNVMGWYRQAPGKERELVAAINWIGGSTYYADSVKGRFTISRDNAKNTVYLQMNSLKPEDTAVYYCARKRYNGRGYVGYYYWGQGTQVTVSS,high polyreactivity
20,QDQLVESGGGLVQAGGSLRLSCAASGITFKFYAMGWYRQAPGKERELVAAISWSGGSTYYADSVKGRFTISRDNAKNTVYLQMNSLKPEDTAVYYCAAYTGWIYHTRYRRDYWGQGTQVTVSS,high polyreactivity
21,QVQLLESGGGLVQAGGSLRLSCAASGSTFTYNAMGWYRQAPGKERELVAAISSSGGSTYYADSVKGRFTISRDNAKNTVYLQMTSLNPEDTAVYYCAKRWLYTSAFRKMDYWGQGTQVTVSS,high polyreactivity
